Numbering of substitutions follows the chain as printed. Names may count otherwise.
T1: His-tagged lamin A/C 1-300 fragment, Y45C (human), P02545
T1 chain: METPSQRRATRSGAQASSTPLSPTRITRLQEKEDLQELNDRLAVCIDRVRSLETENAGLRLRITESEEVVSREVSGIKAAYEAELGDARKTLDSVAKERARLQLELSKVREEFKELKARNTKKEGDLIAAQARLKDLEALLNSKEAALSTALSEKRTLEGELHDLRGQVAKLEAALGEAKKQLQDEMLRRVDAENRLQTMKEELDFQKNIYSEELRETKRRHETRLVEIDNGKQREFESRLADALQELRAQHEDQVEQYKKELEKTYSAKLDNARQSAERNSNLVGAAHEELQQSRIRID

T2: lamin A/C 250-400 fragment, K316C, tag-free (human, UniProt P02545 250-400, K316C)
T2 sequence (looked up): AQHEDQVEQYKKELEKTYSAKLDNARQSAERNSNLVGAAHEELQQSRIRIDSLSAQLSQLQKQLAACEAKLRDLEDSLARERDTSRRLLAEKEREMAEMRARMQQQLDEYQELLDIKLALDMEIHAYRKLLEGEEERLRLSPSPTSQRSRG

T3: lamin A/C 250-400 fragment, Y267C, tag-free (human, UniProt P02545 250-400, Y267C)
T3 sequence (looked up): T2 sequence (looked up) with Y18C, C67K

T4: His-tagged lamin A/C 250-400 fragment, L362C (human, UniProt P02545 250-400, L362C)
T4 sequence (looked up): T2 sequence (looked up) with C67K, L113C

T5: His-tagged lamin A/C 250-400 fragment, wild type (human, UniProt P02545 250-400)
T5 sequence (looked up): T2 sequence (looked up) with C67K

B1: lamin A/C 250-400 fragment (C-terminal part of coil 2), wild type, tag-free (domain or fragment, human, UniProt P02545 250-400, looked up)
chain: T2 sequence (looked up) with C67K
B2: His-tagged lamin A/C 1-125 fragment, I63S (domain or fragment, human, UniProt P02545 1-125, looked up)
chain: METPSQRRATRSGAQASSTPLSPTRITRLQEKEDLQELNDRLAVYIDRVRSLETENAGLRLRSTESEEVVSREVSGIKAAYEAELGDARKTLDSVAKERARLQLELSKVREEFKELKARNTKKEG
B3: His-tagged lamin A/C 1-125 fragment, L35V (domain or fragment, human, UniProt P02545 1-125, looked up)
chain: B2 chain with L35V, S63I
B4: His-tagged lamin A/C 1-125 fragment, L59R (domain or fragment, human, UniProt P02545 1-125, looked up)
chain: B2 chain with L59R, S63I
B5: His-tagged lamin A/C 1-125 fragment, Y45C (domain or fragment, human, UniProt P02545 1-125, looked up)
chain: B2 chain with Y45C, S63I
B6: His-tagged lamin A/C 1-125 fragment, wild type (domain or fragment, human, UniProt P02545 1-125, looked up)
chain: B2 chain with S63I
B7: lamin A/C 1-125 fragment, wild type, prey of Fig. 6B (domain or fragment, human, UniProt P02545 1-125, looked up)
chain: B2 chain with S63I
B8: His-tagged lamin A/C 1-300 fragment, wild type (domain or fragment, human, UniProt P02545 1-300, looked up)
chain: T1 chain with C45Y
B9: His-tagged lamin A/C 1-300 fragment, L35V (domain or fragment, human, UniProt P02545 1-300, looked up)
chain: T1 chain with L35V, C45Y
B10: His-tagged lamin A/C 1-300 fragment, Y45C (domain or fragment, human, UniProt P02545 1-300, looked up)
chain: T1 chain
B11: His-tagged lamin A/C 1-300 fragment, L59R (domain or fragment, human, UniProt P02545 1-300, looked up)
chain: T1 chain with C45Y, L59R
B12: His-tagged lamin A/C 1-300 fragment, I63S (domain or fragment, human, UniProt P02545 1-300, looked up)
chain: T1 chain with C45Y, I63S

Tests used:
[1] = molecular target: B8; assay: pull-down
[2] = molecular target: B12; assay: ITC
[3] = molecular target: B11; assay: ITC
[4] = molecular target: B9; assay: ITC
[5] = molecular target: T1, His-tagged lamin A/C 1-300 fragment, …; assay: ITC; conditions: remark: other sources report otherwise
[6] = molecular target: B1; assay: pull-down
[7] = molecular target: T2, lamin A/C 250-400 fragment, K316C, …; assay: pull-down
[8] = molecular target: T3, lamin A/C 250-400 fragment, Y267C, …; assay: pull-down
[9] = molecular target: T4, His-tagged lamin A/C 250-400 fragment, …; assay: pull-down
[10] = molecular target: T5, His-tagged lamin A/C 250-400 fragment, …; assay: pull-down
[11] = molecular target: the molecule itself

B1 was tested, and the binding result [1] was “binds”, the “fold increase of the eA22 interaction against wild type (from KD)” value [2] was roughly 2 fold and the “fold increase of the eA22 interaction against wild type (from KD)” value [3] was roughly 56 fold. The “fold decrease of the eA22 interaction against wild type (from KD)” value [4] was roughly 2 fold and the fold decrease of the eA22 interaction against wild type (from KD) [5] was 5 fold.

B2: binds [6].

B3: binds [6].

B4: binds [6].

B5: binds [6].

B6: binds [6]; binds [7]; binds [8].

B7: binds [9]; binds [10].

For B8, the “stoichiometry N” value [11] was 2.

B9 was tested, and the “stoichiometry N” value [11] was 2.

In the case of B10, the “stoichiometry N” value [11] is reported as 2.

With B11 the “stoichiometry N” value [11] was 2.

B12 was tested, and the “stoichiometry N” value [11] was 2.

— paper doi:10.1101/2020.09.29.317933 (bioRxiv, 2020)
